Experimental data reported in paper PMC3805332, “Synthesis of α-Glucan in Mycobacteria Involves a Hetero-octameric Complex of Trehalose Synthase TreS and Maltokinase Pep2” (ACS Chemical Biology, 2013).
Read-outs that look alike come from different tables or passages of the source.

Columns and labels:
[1] = molecular target: M. tuberculosis trehalose synthase TreS (M. tuberculosis H37Rv) (UniProt P9WQ19); experiment: AUC
[2] = molecular target: M. tuberculosis trehalose synthase TreS (M. tuberculosis H37Rv) (UniProt P9WQ19); experiment: AUC; remark: listed apart in the source

M. tuberculosis trehalose synthase TreS (M. tuberculosis H37Rv), sequence (P9WQ19 whole entry): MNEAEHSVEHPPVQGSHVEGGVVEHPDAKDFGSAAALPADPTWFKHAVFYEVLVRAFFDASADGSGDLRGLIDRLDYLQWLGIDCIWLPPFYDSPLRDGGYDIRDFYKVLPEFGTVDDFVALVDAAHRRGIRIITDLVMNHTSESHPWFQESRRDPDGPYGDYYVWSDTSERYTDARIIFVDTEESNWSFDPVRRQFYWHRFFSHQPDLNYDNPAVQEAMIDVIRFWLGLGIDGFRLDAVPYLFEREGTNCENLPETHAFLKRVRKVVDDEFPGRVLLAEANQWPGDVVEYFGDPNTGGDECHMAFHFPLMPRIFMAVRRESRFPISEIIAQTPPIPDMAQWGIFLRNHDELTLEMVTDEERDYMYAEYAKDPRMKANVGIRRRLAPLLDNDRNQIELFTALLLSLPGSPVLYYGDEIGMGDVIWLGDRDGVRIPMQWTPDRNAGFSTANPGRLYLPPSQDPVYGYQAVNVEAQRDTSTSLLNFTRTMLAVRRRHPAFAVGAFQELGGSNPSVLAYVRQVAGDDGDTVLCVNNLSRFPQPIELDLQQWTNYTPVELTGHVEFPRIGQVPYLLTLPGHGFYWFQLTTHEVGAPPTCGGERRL

M. tuberculosis maltokinase Pep2 (from UniProt O07177 1-455) (enzyme)
stoichiometry N (Pep2 subunits per TreS tetramer) [1]: 2 | stoichiometry N (Pep2 subunits per TreS tetramer) [2]: 4
